According to the DeepSol protein solubility set:

Experiment: soluble on expression in E. coli; label from the status in PepcDB or PDB records
With “MSLGVNFQPVAFTGRIDQSQREKKRITIPDVMKLVEEQTGGEIPCNAWYPVSFVVPISRFLSAMRNIPIPELTAHPHCGAGTYVFYEEGHFIPITNFFDVESFIELLKEITPEINGRVSRVLSLAKVIKQVPKFIDEKKGPKSVNTTRMILDLLKKGDMENTSRFHRNTLFLGTMHFQDLYNIDLERVKKCGVHYATPDGRIIPFCTYNEGHHHHHH” the “soluble on expression in E. coli” value was “not soluble”.
In the case of “MSLGYLEAAPYGINAPFAWEVQGGKGSGITFVDMEYGWLLNHEDLVHQNIELMSGINIDQHVGHGTSVLGIVSSEDNEVGNIGIAPKAKAKVISQIRDNGQYNTADAILSAVNQLEAGDVLLLEAQASFDGYGDKYLPVEVQPDIFDAIRAGTDKGVVIIEAGANGWNDLDQFKDRNGKQILNRNSKDFKDSGAIMVGAGSSSFPHERMWFSNYGSRIDVYGWGENVDTTTAEQSRSAVNLYTSSFSGTSSASPIIAGAATLVQSIAKENLGQPYRPSELRAILSNENTGTKSKDPYADQIGVLPDLKSILVNLGYGQRKPNGGNELQVTENEPNNERIQANKVNFHTPMKGTLHNSDRVDVFTFQMDSPENITISLLNEQNIGMTWVLHHESDLNNYVAYGENEGNVVKGTYHAKPGKYYLYVYKYENKDGSYVLNIKEGHHHHHH”, the “soluble on expression in E. coli” value is reported as “soluble”.
In the case of “MSLHLYTKHIYFIGGKGGVGKSTSAASFAWRCAERGEKTLLISTDPAHNLGDLFHTEIGAKHKKITDNLFATEIDPEQETRRYIQSVKDNLRGMVKSTMLDEVNRQIDAAAATPGADEAAMFNAISSIVLDEQGTYDKLVFDTAPTGHTIRLLTLPEMMGVWIDGMVKKRKKINENYSNLLNDGEPVDDPIYDTLQQRKERFAAVRNVLLDPKKTGFMFVLIPERLPILETEKAVKLLAKHDLHVETLIINKILPDVADGQFLEKRRQIEQRYLQQIHNTFRKQTLLRVPLFPEDIGSIEALYHFARYLEPTAEGHHHHHH”, the “soluble on expression in E. coli” value is reported as “soluble”.
For “MSLIDTMQYGKNDSLRDEIKAYWSGRAATFDLSPGHEIFSEDERAAWHALILKHLGRGEGRKALDLASGTGVISHLMDDLGFQVTGMDWSETMLGLAREKAKSRGRNIRFFVGDAENTMEPDESADVIITRHLVWTLVDPQASFAEWFRVLKPGGKLLIVDGDFVNTGWRERLVKKLAVSLESIGLVKADQPHKPADPENTFNSILSRVYFSKGARAGDVATMLGATGFEPVSVDQELRAIHRAQAKNFSLLKGILRGLQHRYAVCAVKPDTSVKGEGHHHHHH”, the “soluble on expression in E. coli” value was “not soluble”.
In the case of “MSLIEKLEEIFKKGSVTYYNSSYFFPKKIREDVTKLYAFVRVFDDLVDSVPQKIEEYYNLRKLYQLEKSGYNTGNIVLQNFVELARRKGFEDSWIDAFLDAMESDIYKKVYYSIEELLKYMYGSAEVVGLFMMKILDLHNDSMYYARMLGRAMQFLNFIRDVQEDLYLGRQYLPVEDMEKFGIDKMECNEGFIEFIRYEISRYFEFEREAEKGFKFIPARYLVPIKTASEMYKWSALRIKKSPCIVLSKKVKPRRTKIVITVIKNFAGVYLWRSLNPIEGHHHHHH”, the “soluble on expression in E. coli” value is reported as “soluble”.
With “MSLIESVMTVLVTRPDEQGAELCQLLHQQGIPALHHPLLAISASPQLAALAEDLSSFDIIIAVSQHAVIFSDQFLQHRRICWPNNAIYLAVGQKTAHVFSKACQQSVDYPEISDSEHLLALSMLRDVAGKKVLILRGNGGRELIYSTLVERGATVRYQEAYCRHERPFAAAECVQKWQLAKVDSLVITSSEQLAFFIRQFETSHLPWVQQLTLLVPSQRIATLAHQLGFHRIVVTLSAANRDLVAALMPEKPTGTLSNDQQQEGHHHHHH” the “soluble on expression in E. coli” value was “soluble”.
With “MSLIIDCHGHVSAPVELWAYKASLLAHRGSHGRGGVKVTDEQIIAAAHHKETWPDGHIELLHNHGTDMQLISPRTFQMMNSAKPARVVHWFCEEVNTLIHRQCTLIPEMFIPVAGLPQVAGEPIENVFAEMDRCVSMGFKGFLLNPDPYENGAEEAPPLGDRYWYPLYEKLCELDLPAHIHATGSQSERSPYSLHFINEETIATYNLCTSSVFDDFPQLKVVVSHGGGAIPYQLGRFESQSRRSKHLFSERMAKLYFDTVLYTEGALRLLIETVGPERCLFGSECPGVGSTIDPATGKQMDHIAPFIQKFDFLSDADKKLIFEDNARKVFNLEVEGHHHHHH” the “soluble on expression in E. coli” value was “soluble”.
In the case of “MSLIKCVCLVIEEQEKLLLVQSRNREKYYFPGGKIDIGETYKQALQRELNEELQLDIPESSLIYMHTVVGEAYPQKNMKTELNCFYTTADIDWSTLVPSQEITDLQWIDKKDEHKIAPAVITWIEEQQHFKNIEREGHHHHHH”, the “soluble on expression in E. coli” value is reported as “soluble”.
For “MSLIKTEFKGNNIPYEYAAGADVSDSINGNPIKSFPFEVIELPEGTKYLAWSLIDYDAIPVCGFAWIHWSVANVSVSGNSISIKADLSRTKGDYVQGKNSFTSGLLAEDFSEIENHYVGPTPPDQDHQYELTVYALDHSLNLKNGFYLNEFLKEVNQHKIDQTSINLIGRKEGGSHHHHHH”, the “soluble on expression in E. coli” value was “soluble”.
